Results on three molecules are retold here after PMC3474739, “Novel Frataxin Isoforms May Contribute to the Pathological Mechanism of Friedreich Ataxia” (PLoS ONE, 2012).

The chains are these.
B2: frataxin isoform II (natural protein, human, UniProt Q16595 76-210, looked up)
chain: MNLRKSGTLGHPGSLDETTYERLAEETLDSLAEFFEDLADKPYTFEDYDVSFGSGVLTVKLGGDLGTYVINKQTPNKQIWLSSPSSGPKRYDWTGKNWVYSHDGVSLHELLAAELTKALKTKLDLSSLAYSGKDA
notes: human frataxin isoform II, 135 amino acids, 14.9 kDa, begins at the second AUG (methionine, 76th aa of the FXN precursor) and runs to the stop codon; Cloned into pET24a(+) with NdeI and XhoI sites; also called FXN II; FXN isoform II; source: E. coli BL21(DE3), purified
B3: human ISCU, mitochondrial mature form (natural protein, UniProt Q9H1K1 35-167, looked up)
chain: YHKKVVDHYENPRNVGSLDKTSKNVGTGLVGAPACGDVMKLQIQVDEKGKIVDARFKTFGCGSAIASSSLATEWVKGKTVEEALTIKNTDIAKELCLPPVKLHCSMLAEDAIKAALADYKLKQEPKKGEAEKK
notes: human ISCU, mitochondrial mature form; source: E. coli BL21(DE3), purified

Test in all cases: SEC; purified ISCS/ISD11, ISCU and FXN isoform mixed at a molar ratio of 1:1:1, 1 h anaerobically at room temperature, then Superdex200 in 50 mM Tris, 200 mM NaCl, 5 µM PLP, pH 8.0; fractions analysed by SDS-PAGE
Conditions in all cases: both partners purified
Background: SEC sorts molecules by how far they enter the pores of the column.

Test [1] concerns the target B3.
In a further test the target is T1, ISCS/ISD11 (human, UniProt Q9Y697 56-457; Q9HD34 1-91).
T1 construct: human mitochondrial ISCS (NFS1) that misses the first 55 amino acids of the precursor (NFS1Δ1-55); human ISD11; Both chains in pACYCDuet-1; also called NFS1Δ1-55 with ISD11; source: E. coli, co-expressed (plasmid pZM90b), purified; also co-expressed with His-ISCU in E. coli BL21(DE3) or CL100(DE3), in lysate
T1 sequence (Q9Y697 56-457, chain 1 of 2): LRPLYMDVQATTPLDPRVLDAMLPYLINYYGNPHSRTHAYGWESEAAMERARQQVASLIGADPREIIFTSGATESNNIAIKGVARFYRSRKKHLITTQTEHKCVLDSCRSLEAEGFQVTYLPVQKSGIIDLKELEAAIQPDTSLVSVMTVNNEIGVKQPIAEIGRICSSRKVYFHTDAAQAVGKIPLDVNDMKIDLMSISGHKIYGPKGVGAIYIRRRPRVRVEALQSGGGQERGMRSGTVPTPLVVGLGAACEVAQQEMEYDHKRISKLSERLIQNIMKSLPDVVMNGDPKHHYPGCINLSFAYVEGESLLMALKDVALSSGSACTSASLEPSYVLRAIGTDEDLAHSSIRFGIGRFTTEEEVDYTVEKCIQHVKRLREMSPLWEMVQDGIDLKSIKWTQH
T1 sequence (Q9HD34 whole entry, chain 2 of 2): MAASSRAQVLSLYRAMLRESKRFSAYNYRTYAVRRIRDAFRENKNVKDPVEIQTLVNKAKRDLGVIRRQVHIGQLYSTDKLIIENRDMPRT

In the test “frataxin isoform II” the target is B2.

B1: frataxin isoform I, mature form (natural protein, human, UniProt Q16595 81-210, looked up)
chain: SGTLGHPGSLDETTYERLAEETLDSLAEFFEDLADKPYTFEDYDVSFGSGVLTVKLGGDLGTYVINKQTPNKQIWLSSPSSGPKRYDWTGKNWVYSHDGVSLHELLAAELTKALKTKLDLSSLAYSGKDA
notes: Cloned into pET24a(+) with NdeI and XhoI sites; also called FXN I; FXN isoform I; source: E. coli BL21(DE3), purified
As for B1, the binding result (in test [1]; with ISCS/ISD11) was “binds” throughout.
Turning to B2, the binding result in the test with ISCS/ISD11 is given as “binds”.
Regarding B3, the binding result in the test with ISCS/ISD11 and with frataxin isoform II was “binds” throughout.
